# Test results taken from the supplement of paper PMC9170038.
# Key:
# [1] = test system: MS2 coat protein; experiment: apparent KD of MS2 coat protein, switch ON state; designed switch direction (-1 OFF switch, 1 ON switch): -1; higher = weaker reporter binding; details: FMN input: 0 or 200 uM; Eterna round: R93 (includes R88 designs)
# In short: (§1)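 Binding of SNAP-549-labelled MS2 coat protein was measured on designed RNA switches transcribed on-chip from Illumina sequencing clusters. The protein rose in twofold steps from 0.7 or 1.5 nM to 3 µM, with 0.8–1.5 h per step early on and 10–20 min per step later, in 100 mM Tris-HCl pH 7.5, 80 mM KCl, 4 mM MgCl2, without or with constant ligand. Each design's apparent KD is the median of fits to its normalised cluster binding curves.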
# [2] = test system: MS2 coat protein; experiment: apparent KD of MS2 coat protein, switch OFF state (with FMN for OFF switches, without FMN for ON switches); designed switch direction (-1 OFF switch, 1 ON switch): -1; higher = weaker reporter binding; details: FMN input: 0 or 200 uM; Eterna round: R93 (includes R88 designs)
# In short: as §1
Sequence,apparent KD of MS2 coat protein [1] [nM],apparent KD of MS2 coat protein [2] [nM]
AGAAAGUCAGGAUAUGCGAAGGCGUCUGAUAGACGAGGCUAGCAGAAGGGACAUGAGGAUCACCCAUGUGAAGA [Mat - Exclusion 4 - Eli mod - D85],55,86.4
AAGAAGCUAGGAUAUACUUGGGCAACAAAUAAACUAAUAUAACAUGAGGAUCACCCAUGUAGAAGGAGCAGAAA [JR_Exc002_Sub205],39.7,39.8
CUCUAGUUAGGAUAUGCAAGAAAAGAAAAGAAAGAAAAGAAGCAGAAGGAACAUGAGGAUCACCCAUGUAAGAA [EteRNA is fun!],49.4,62.5
CCCUCACAUGAGGAUCACCCAUGUGAGGAUAUGCAUAAAAAAAAAAAAAAAAAAAAAUGCAGAAGGCACAUGAA [jn_irvington],13,11.1
AACAGUACAGGAUAUACAUGAGGAUCACCCAUGUGAAAAUUAAGUGGCGUACCACAAUGUAGAAGGGUACUGAA [Mat - Exclusion 3 - Eli mod - D46],103,232
AAAGAUACAGGAUAUACAUGAGGAUCACCCAUGUGAGACCAAAAAUGGGAAAAAGAAAGUAGAAGGGUAUAAAA [Ex 3 May 36],39.9,91.7
AAAAAACAUGAGGAUCACCCAUGUCAGGAUAUCUGUAUAAAUAAAAAAAUAAAAAUACAGAGAAGGGACAAAAA [Ex1: 608],50.5,51.7
GGUUUGGUAGGAUAUACAUGAGGAUCACCCAUGUGAGAGAAAAAAGUGAGAAAGAAAAGUAGAAGGACCGGACG [salish99-ex3-123],39.9,102
AGUAAACAUGAGGAUCACCCAUGUGAGGAUAUCGAAAAGAAAAGAAAAGAAAGAAGAAUGAGAAGGCACAAGAA [Huni],33.3,37
AAAAAACAUGAGGAUCACCCAUGUGAGGAUAUGAAAAUACUAAGACAACAGUAAUCAAUCAGAAGGCACAACAA [JR_Exc--1_Sub1209],20.1,25.8
AACAAGUCAGGAUAUCAUACUAAUCACUUGCUUUAAAUGUAUGAGAAGGGACAUGAGGAUCACCCAUGUAAAGA [Exclusion4-cac3],46.8,34.1
AAAAACAGAGGAUAUACAAAAUUAUGACGAAAGUCAUAAAAACAUGAGGAUCACCCAUGUAGAAGGCUGGAAAA [Mat - Mod of Meechl],28.5,22.7
AAAAAACAUGAGGAUCACCCAUGUGAGGAUAUCCUGAAUGAAAUAAAAUAUCUCGAAAGGAGAAGGCGCAAAAA [Ex 1 May 33],67.7,49.9
AAAAAACAUGAGGAUCACCCAUGUGAGGAUAUACAAAACCCAUAUAAAAAGGGAAAAAGUAGAAGGCGCAAAAA [wbt round 1 mod 8],20.8,24.3
AAAAAGUGAGGAUAUAGCAAAGGUCACGAAAGUGACAAAGGCUAGAAGGCACAUGAGGAUCACCCAUGUAAAAA [Fiskers Exclusion 4 D2 63% 1],41.6,34.9
AACCUGCUAGGAUAUACAGCAGGGAUUCGAAAACCCACGAAACAUGAGGAUCACCCAUGUAGAAGGAGUAGGGA [Teainis],20.3,16.1
AUCAUGUAAGGAUAUACAAGAAAAGAAAAGAAAGAAAAGAAGUAGAAGGUACAUGAGGAUCACCCAUGUAAGAA [EteRNA is fun!],61,31.5
AGUCGGCGAGGAUAUACAUGAGGAUCACCCAUGUGAGAGAAUAUAGUGAGUUAGACAAGUAGAAGGCGCUGACA [JL Lego Mod 11],43.2,135
AAGGUACGAGGAUAUACAUAGAUACAGACACAUGUUCAUGUACAUGAGGAUCACCCAUGUAGAAGGCGUAUAUA [AJ 17],56.7,147
GAAAAGUGAGGAUAUUCGGAUAGGAAAACGAAAACCUAUCCGAAGAAGGCACAUGAGGAUCACCCAUGUGGAAG [Mat - Exaclusion 4 - Eli mod - D46],26.1,30.7
AACUGACAUGAGGAUCACCCAUGUCAGGAUAUGCUUCAUAAAACAAAAACAAAAUGAUGCAGAAGGGACAUGAA [Design 26 :P Sub-opt 2],16.3,14.6
UCCACACAUGAGGAUCACCCAUGUGAGGAUAUCUAGAAAACCUCAUGUAAAAAAAUCUAGAGAAGGCACAUGAA [Design 92: Pseudoknot B],24,25
GUCAGCUGAGGAUAUACAGGUGAUGCCGCAGAACAAAAUAUACAUGAGGAUCACCCAUGUAGAAGGCGGAAGAC [Terian],49.4,44.1

Sequence,apparent KD of MS2 coat protein [1] [nM],apparent KD of MS2 coat protein [2] [nM]
AAAUAGCAAGGAUAUACAUGAGGAUCACCCAUGUAAAAAUGGAAAGUAAAAGAAUAAAGUAGAAGGUGCAAAUA [Ex 3 Tesla 2],20.6,36.9
AGAAAGUCAGGAUAUACAGAAAAAAAAACGAAAAAAAAUCUGUAGAAGGGACAUGAGGAUCACCCAUGUAAAGA [Mat - Exclusion 4 - Mayanna - D124],66.1,36.8
AGGGUACAUGAGGAUCACCCAUGUUAGGAUAUUGAAAAGAAAAGAAAAGAAAGAAGAACAAGAAGGGACAAGAA [Userkare],56.5,45.7
AGAAAGCUAGGAUAUACCUGGAGGGUUCGAAAUGAAAUAAAACAUGAGGAUCACCCAUGUAGAAGGAGCCCGAG [Veislela],42.6,28
"AAAAAGUCAGGAUAUACGAAAGUGCGAAAGCACAAAAAGGGACAUGAGGAUCACCCAUGUAGAAGGGACAAGAA [Married to this design, 61% 3]",45.2,50.4
AAAAAGUGAGGAUAUUCGGAUAGGAAAACGAAAACCUAUCCGAAGAAGGCACAUGAGGAUCACCCAUGUGGGAA [67% Ecls-II - Early G + late G segment 3],52.6,75.9
AAGAAACAUGAGGAUCACCCAUGUCAGGAUAUACAAAAGAAAAGAAAAGAAAGAAGAAGUAGAAGGGACAAAGG [Neitiqerty Siptah],38.3,69.3
AAAAAUGGAGGAUAUACAUGAGGAUCACCCAUGUGUGACUAUACUAAGCGCUCUUCAGGUAGAAGGCCAAAAAA [Gilly Gone Silly 17 - Jieux - Exclusion 3],43.8,60.3
AAAAAGCGAGGAUAUACAUGAGGAUCACCCAUGUGAAAAAAAAAAAAAAAAAAAAAAAGUAGAAGGCGCAAAAA [H20 RNA],46.4,39.2
UAAAGGAUAGGAUAUACAUGAGGAUCACCCAUGUGAAUAAAUAAGAAAAUAAAAGAAAGUAGAAGGAUCAAGAA [LROPPY Exclusion 3 - v04_deltaG=3.9 break up As mixed],25.2,29.6
AACUGACAUGAGGAUCACCCAUGUCAGGAUAUGCUUCAUAAAAAAAAAAAAAAAUGAUGCAGAAGGGACAUGGA [Design 29 :P Sub-opt 5],20,24.5
AAAAAGUCAGGAUAUACAUGAGGAUCACCCAUGUGAAAGAACGAUUAACGACCAGCAAGUAGAAGGGACAAAAA [Ruby 80],22,20.8
AAUAAACAUGAGGAUCACCCAUGUCAGGAUAUGCAUCUAACCUAAUAACAUAAAUACAGCAGAAGGGACUAAUA [JR_Exc001_Sub602],26.8,25
AACAGGUUAGGAUAUAUCCAACAAAUAAAAAAAAUAUAAGGAUAGAAGGAACAUGAGGAUCACCCAUGUUAACA [May 30],20.8,17.1
AAGAACCGAGGAUAUACUAAAGAAAUGAAAAGAAAUAAAGAACAUGAGGAUCACCCAUGUAGAAGGCGGAAGAA [Nebefawre],27.4,23.4
AAGAAGUGAGGAUAUCGAAGACUGUCGAAAAGACAGUCGAACGAGAAGGCACAUGAGGAUCACCCAUGUGAGGA [Marsurpial 65% 2],26.2,50.1
CUUAAACAUGAGGAUCACCCAUGUGAGGAUAUGAUGCGAAUAAAGAAAGAAGAAAGCAUCAGAAGGCACAUAUG,27.7,129
CGAAUACAUGAGGAUCACCCAUGUUAGGAUAUGCGAAAACAAAACAAAACAAACAAAAGUAGAAGGAGCAACAA [EXC - 1],18.1,20
AAGAAGUGAGGAUAUCGAAGACAAAAAAAAAAAAAGUCGAACGAGAAGGCACAUGAGGAUCACCCAUGUAAGAA [shorter stack],37.7,40.3
CUCUUGUCAGGAUAUCGAUGAAUAAUAAAACAGAGGAACAUUGAGAAGGGACAUGAGGAUCACCCAUGUAAAAC [May 83],73.1,48.9
AAGAAGUCAGGAUAUACAAAAUAAAAGAAAAGAAAGAAAGAACAUGAGGAUCACCCAUGUAGAAGGGACAAGAA [Nerikare],57.8,37.4
AAAAAGCGAGGAUAUACAUGAGGAUCACCCAUGUGAAAAAAAAAAAAAAAAAAAAAAAGUAGAAGGCGCAAAAA [GC super strong! + G boost],46.4,39.2
